EP4578463A1, “ENDO-180 TARGETED ANTIBODY-DRUG CONJUGATES” (Oncomatryx Biopharma, S.L., priority 2023, dated 2025)

Assays:
[1] = target: T1, human Endo180-His (aa: 31-513; comprising the first four N-terminal domains) (human, UniProt Q9UBG0 31-513); experiment: ELISA, immobilized human Endo180-His
T1 construct: In-house produced; also called huEndo; human Endo180-His molecule; not shown: His tag
T1 sequence: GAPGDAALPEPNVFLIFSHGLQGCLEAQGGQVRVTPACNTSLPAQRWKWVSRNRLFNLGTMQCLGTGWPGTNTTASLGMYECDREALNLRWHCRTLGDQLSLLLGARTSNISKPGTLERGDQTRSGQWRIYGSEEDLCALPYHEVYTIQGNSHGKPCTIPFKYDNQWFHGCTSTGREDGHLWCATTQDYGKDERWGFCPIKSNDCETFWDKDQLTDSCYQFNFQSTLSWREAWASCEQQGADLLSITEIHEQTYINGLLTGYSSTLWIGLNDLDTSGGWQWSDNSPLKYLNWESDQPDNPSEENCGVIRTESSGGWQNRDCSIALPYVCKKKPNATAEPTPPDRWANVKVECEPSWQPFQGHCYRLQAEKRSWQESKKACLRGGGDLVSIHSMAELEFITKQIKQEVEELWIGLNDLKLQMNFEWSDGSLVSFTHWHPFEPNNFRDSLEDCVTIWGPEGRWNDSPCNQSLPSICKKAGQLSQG

[2] = target: T2, human Endo180-moFc DI-DIV variant region 2 (Q254K, T256A, S258T, E261Q) (human, UniProt Q9UBG0 31-513); experiment: ELISA, 10 nM IgG on immobilized variant (3 µg/ml)
T2 construct: not shown: murine Fc
T2 chain: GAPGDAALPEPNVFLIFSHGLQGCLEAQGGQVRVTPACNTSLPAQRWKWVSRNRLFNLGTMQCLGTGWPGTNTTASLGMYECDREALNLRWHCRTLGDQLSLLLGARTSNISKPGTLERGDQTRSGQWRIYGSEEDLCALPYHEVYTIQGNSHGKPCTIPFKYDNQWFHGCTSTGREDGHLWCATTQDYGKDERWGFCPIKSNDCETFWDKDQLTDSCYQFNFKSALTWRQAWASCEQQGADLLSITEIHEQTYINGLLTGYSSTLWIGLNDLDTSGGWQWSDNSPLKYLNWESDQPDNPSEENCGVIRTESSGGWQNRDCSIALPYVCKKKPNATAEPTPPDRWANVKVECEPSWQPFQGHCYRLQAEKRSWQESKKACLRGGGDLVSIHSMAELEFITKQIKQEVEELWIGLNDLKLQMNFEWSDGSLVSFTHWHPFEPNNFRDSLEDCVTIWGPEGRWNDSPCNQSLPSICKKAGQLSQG

[3] = target: T3, human Endo180-moFc DI-DIV variant region 1 (N233E, D234G, T237S, Q243P, D246S) (human, UniProt Q9UBG0 31-513); experiment: ELISA, 10 nM IgG on immobilized variant (3 µg/ml)
T3 construct: Domain III residues swapped to those of MRC1; not shown: murine Fc
T3 chain: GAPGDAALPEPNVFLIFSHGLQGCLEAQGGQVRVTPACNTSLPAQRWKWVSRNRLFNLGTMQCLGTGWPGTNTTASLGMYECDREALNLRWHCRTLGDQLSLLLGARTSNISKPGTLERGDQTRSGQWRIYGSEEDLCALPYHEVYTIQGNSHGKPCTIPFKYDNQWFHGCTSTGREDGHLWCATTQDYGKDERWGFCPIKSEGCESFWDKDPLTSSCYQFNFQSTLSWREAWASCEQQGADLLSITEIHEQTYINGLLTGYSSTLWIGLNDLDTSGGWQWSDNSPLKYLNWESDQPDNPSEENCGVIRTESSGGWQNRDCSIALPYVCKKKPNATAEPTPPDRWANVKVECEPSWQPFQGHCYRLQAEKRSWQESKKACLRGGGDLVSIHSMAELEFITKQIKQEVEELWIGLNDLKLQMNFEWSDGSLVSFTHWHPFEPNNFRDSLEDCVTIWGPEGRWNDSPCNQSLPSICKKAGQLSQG

[4] = target: T4, human Endo180-moFc DI-DIV variant region 4 (D304S, T305F, S306N) (human, UniProt Q9UBG0 31-513); experiment: ELISA, 10 nM IgG on immobilized variant (3 µg/ml)
T4 construct: not shown: murine Fc
T4 chain: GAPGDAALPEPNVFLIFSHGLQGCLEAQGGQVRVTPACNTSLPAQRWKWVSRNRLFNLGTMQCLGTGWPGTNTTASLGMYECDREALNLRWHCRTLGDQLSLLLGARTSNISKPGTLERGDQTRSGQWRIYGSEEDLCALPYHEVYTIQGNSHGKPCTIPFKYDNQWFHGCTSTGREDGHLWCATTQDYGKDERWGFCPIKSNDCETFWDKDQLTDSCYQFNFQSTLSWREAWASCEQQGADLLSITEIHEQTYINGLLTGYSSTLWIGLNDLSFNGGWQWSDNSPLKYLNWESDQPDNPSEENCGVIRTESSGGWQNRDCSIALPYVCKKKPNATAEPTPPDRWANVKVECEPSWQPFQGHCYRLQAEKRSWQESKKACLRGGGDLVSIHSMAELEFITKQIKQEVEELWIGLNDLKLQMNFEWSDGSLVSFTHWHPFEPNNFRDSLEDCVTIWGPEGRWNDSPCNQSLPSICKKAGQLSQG

[5] = target: T5, human Endo180-moFc domains I-II (aa 31-232) (human, UniProt Q9UBG0 31-232); experiment: ELISA, immobilized human Endo180-moFc domains
T5 construct: also called huEndo180-moFc DI-II; not shown: murine Fc domain
T5 sequence: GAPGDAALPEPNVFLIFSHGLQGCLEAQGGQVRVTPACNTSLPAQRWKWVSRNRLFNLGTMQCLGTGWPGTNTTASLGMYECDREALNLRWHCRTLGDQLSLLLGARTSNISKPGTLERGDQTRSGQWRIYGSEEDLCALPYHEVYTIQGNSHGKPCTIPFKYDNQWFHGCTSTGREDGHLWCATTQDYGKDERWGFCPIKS

[6] = target: T6, human Endo180-moFc domain I (aa 31-173) (human, UniProt Q9UBG0 31-173); experiment: ELISA, immobilized human Endo180-moFc domains
T6 construct: also called huEndo180-moFc DI; not shown: murine Fc domain
T6 sequence: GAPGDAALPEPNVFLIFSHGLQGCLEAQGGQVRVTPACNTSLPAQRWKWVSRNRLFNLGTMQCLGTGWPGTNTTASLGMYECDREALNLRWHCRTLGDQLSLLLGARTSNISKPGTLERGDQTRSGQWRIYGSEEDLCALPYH

EC50 [1]: 4.7 nM
binding result [2]: binds
binding result [3]: binds
binding result [4]: binds
B1: Human IgG1 G7V with a wildtype γ1 heavy chain (antibody, V domains shown)
VH: EVQLVESGGGLVKPGGSLRLSCAASGFTFSSYSMNWVRQAPGKGLEWVANIKPDGSERHSVDSVKGRFTISRDNSKNSLYLQMNSLRAEDTAVYYCARPGAGRLDYWGQGTLVTVSS
VL: SSELTQDPAVSVALGQTVRITCQGDSLRSYYASWYQQKPGQAPVLVVYGKNNRPSGIPDRFSGSSSGNTASLTITGAQAEDEADYYCNSRDSSGNPWAFGGGTKVTVLG
notes: Naked antibody, made in HEK293-6E (lab scale) or CHO (1 L scale); also called IgG G7V; OMTX007-G7V
binding result [5]: no binding (tested: titrated from 0.1 pM to 100 nM)
binding result [6]: no binding (tested: titrated from 0.1 pM to 100 nM)
